Key:
[1] = molecular target: T1, recombinant human CD73 enzyme (human) (UniProt P21589); test: cell-based or functional assay
T1 sequence (looked up): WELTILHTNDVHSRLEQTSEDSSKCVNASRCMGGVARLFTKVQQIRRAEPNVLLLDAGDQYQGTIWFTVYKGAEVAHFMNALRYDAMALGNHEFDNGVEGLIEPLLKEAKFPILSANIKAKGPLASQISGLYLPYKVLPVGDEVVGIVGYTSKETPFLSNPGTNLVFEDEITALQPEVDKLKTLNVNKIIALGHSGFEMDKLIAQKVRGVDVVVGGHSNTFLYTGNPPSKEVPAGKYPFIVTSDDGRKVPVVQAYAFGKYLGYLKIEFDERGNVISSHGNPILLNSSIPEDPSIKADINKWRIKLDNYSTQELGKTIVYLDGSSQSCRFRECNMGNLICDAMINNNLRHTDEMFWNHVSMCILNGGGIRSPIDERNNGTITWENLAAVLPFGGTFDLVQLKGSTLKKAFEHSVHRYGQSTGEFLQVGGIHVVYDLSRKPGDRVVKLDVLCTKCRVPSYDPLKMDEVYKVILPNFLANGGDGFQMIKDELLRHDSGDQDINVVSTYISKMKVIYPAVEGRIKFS

[2] = molecular target: T2, human CD73 expressed on cells (human) (UniProt P21589); test: cell-based or functional assay
T2 sequence (looked up): T1 sequence (looked up)

Row | Substance | cell-free CD73 enzyme inhibition, maximal inhibition [1] | Cell internalization EC50 (nM), Fab-ZAP saporin assay, MDA-MB-231 [2]
1 | Oleclumab (antibody) | 80% | 
2 | hIgG1 isotype control (antibody) |  | > 100 nM
